Measurements: patent publication US20230227584A1 (published 2023)
Where a chain is given by its changes, count along the chain named.

T1: human OX40 on the cell surface (activated human T cells; HeLa_hOx40_NFkB_Luc1 reporter cells) (human, UniProt P43489 29-277)
T1 construct: also called hu OX40; CD134
T1 sequence: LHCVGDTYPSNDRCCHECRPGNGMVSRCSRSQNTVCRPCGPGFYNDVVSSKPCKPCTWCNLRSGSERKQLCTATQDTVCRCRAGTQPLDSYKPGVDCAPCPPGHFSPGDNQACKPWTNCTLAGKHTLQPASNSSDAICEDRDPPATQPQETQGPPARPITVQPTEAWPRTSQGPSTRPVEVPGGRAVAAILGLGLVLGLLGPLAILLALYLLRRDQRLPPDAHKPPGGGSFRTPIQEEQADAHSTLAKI

B1: P1AE1116 GITR(852.2) x FAP (4B9) (2+1) C-terminal crossfab fusion (bispecific antibody, human IgG1, kappa, L234A L235A)
heavy 1: not shown
heavy 2: EVQLVESGGGLVQPGGSLRLSCAASGFTFSSYTMKWVRQTPGKGLEWVSVISADGGTTDHAASVKGRFTVSRDNSKNMLYLQMNSLRAEDTAIYYCAKDRANDWITGASFDYWGQGALVTVSSASTKGPSVFPLAPSSKSTSGGTAALGCLVEDYFPEPVTVSWNSGALTSGVHTFPAVLQSSGLYSLSSVVTVPSSSLGTQTYICNVNHKPSNTKVDEKVEPKSCDKTHTCPPCPAPEAAGGPSVFLFPPKPKDTLMISRTPEVTCVVVDVSHEDPEVKFNWYVDGVEVHNAKTKPREEQYNSTYRVVSVLTVLHQDWLNGKEYKCKVSNKALGAPIEKTISKAKGQPREPQVCTLPPSRDELTKNQVSLSCAVKGFYPSDIAVEWESNGQPENNYKTTPPVLDSDGSFFLVSKLTVDKSRWQQGNVFSCSVMHEALHNHYTQKSLSLSP
light 1: DIQMTQSPSSLSASVGDRVTITCRASQSINSYLNWYQQKPGNAPKLLIYAASSLQSGVPSRFSGSGSGTEFTLTISSLQPEDLATYYCQQARSFPLTFGGGTKVEIKRTVAAPSVFIFPPSDRKLKSGTASVVCLLNNFYPREAKVQWKVDNALQSGNSQESVTEQDSKDSTYSLSSTLTLSKADYEKHKVYACEVTHQGLSSPVTKSFNRGEC
light 2: EIVLTQSPGTLSLSPGERATLSCRASQSVTSSYLAWYQQKPGQAPRLLINVGSRRATGIPDRFSGSGSGTDFTLTISRLEPEDFAVYYCQQGIMLPPTFGQGTKVEIKSSASTKGPSVFPLAPSSKSTSGGTAALGCLVKDYFPEPVTVSWNSGALTSGVHTFPAVLQSSGLYSLSSVVTVPSSSLGTQTYICNVNHKPSNTKVDKKVEPKSC
notes: 2+1 format; Human IgG1 Fc, knob-into-hole, PGLALA; VL-CH1 chain ends in EPKSC
B2: P1AG1036 GITR(852.2) x FAP (4B9_EPKSCS) (2+1) C-terminal crossfab fusion (bispecific antibody, human IgG1, kappa, L234A L235A)
heavy 1: not shown
heavy 2: B1 heavy 2
light 1: B1 light 1
light 2: EIVLTQSPGTLSLSPGERATLSCRASQSVTSSYLAWYQQKPGQAPRLLINVGSRRATGIPDRFSGSGSGTDFTLTISRLEPEDFAVYYCQQGIMLPPTFGQGTKVEIKSSASTKGPSVFPLAPSSKSTSGGTAALGCLVKDYFPEPVTVSWNSGALTSGVHTFPAVLQSSGLYSLSSVVTVPSSSLGTQTYICNVNHKPSNTKVDKKVEPKSCS
notes: 2+1 format; Human IgG1 Fc, knob-into-hole, PGLALA; VL-CH1 chain ends in EPKSCS
B3: P1AG1039 GITR(852.2) x FAP (4B9_EPKSCG) (2+1) C-terminal crossfab fusion (bispecific antibody, human IgG1, kappa, L234A L235A)
heavy 1: not shown
heavy 2: B1 heavy 2
light 1: B1 light 1
light 2: B2 light 2 with S214G
notes: 2+1 format; Human IgG1 Fc, knob-into-hole, PGLALA; VL-CH1 chain ends in EPKSCG
B4: P1AF6455 OX40(CLC563) x FAP(1G1a_EPKSCS) 3+1 (bispecific antibody, human IgG1, kappa, L234A L235A)
heavy 1: not shown
heavy 2: not shown
light 1: not shown
light 2: EIVLTQSPATLSLSPGERATLSCRASESVDNYGLSFINWFQQKPGQAPRLLIYGTSNRGSGIPARFSGSGSGTDFTLTISSLEPEDFAVYFCQQSNEVPYTFGGGTKVEIKSSASTKGPSVFPLAPSSKSTSGGTAALGCLVKDYFPEPVTVSWNSGALTSGVHTFPAVLQSSGLYSLSSVVTVPSSSLGTQTYICNVNHKPSNTKVDKKVEPKSCS
notes: Human IgG1 Fc, knob-into-hole, PGLALA; also called CLC-563, S-variant 3+1
B5: P1AF6454 OX40 (CLC563) x FAP (1G1a_EPKSCD) (3+1) C-terminal crossfab fusion (bispecific antibody, human IgG1, kappa, L234A L235A)
heavy 1: not shown
heavy 2: not shown
light 1: not shown
light 2: B4 light 2 with S217D
notes: 3+1 format; Human IgG1 Fc, knob-into-hole, PGLALA; VL-CH1 chain ends in EPKSCD; also called CLC-563, D-variant 3+1; 3+1 CLC563/H212-D

Key:
[1] = target: human FAP (soluble second analyte, SPR) (human, UniProt Q12884 26-760); test: SPR (Biacore T200), biotinylated human GITR Fc(kih) on SA chip, bispecific at 200 nM, then human FAP at 500 nM
Method: The capacity of binding simultaneously human GITR Fc(kih) and human FAP can be assessed by surface plasmon resonance (SPR). All SPR experiments are performed on a Biacore T200 at 25° C. with HBS-EP as running buffer (0.01 M HEPES pH 7.4, 0.15 M NaCl, 3 mM EDTA, 0.005% Surfactant P20, Biacore, Freiburg/Germany). […] Immobilization levels up to 1000 resonance units (RU) are used. The bispecific antibodies targeting GITR and FAP are passed at a concentration range of 200 nM with a flow of 30 µL/minute through the flow cells over 90 seconds and dissociation was set to zero sec. Human FAP is injected as second analyte with a flow of 30 µL/minute through the flow cells over 90 seconds at a concentration of 500 nM. The dissociation is monitored for 120 sec. Bulk refractive index differences are corrected for by subtracting the response obtained in a reference flow cell, where no protein is immobilized.

[2] = target: T2, human fibroblast activation protein (huFAP) on NIH/3T3-huFAP clone 19 cells (human, UniProt Q12884 1-760); test: flow cytometry, NIH/3T3-huFAP clone 19 cells
T2 construct: Mouse NIH/3T3 fibroblasts transfected with vector pETR4921 to express huFAP; also called cell surface FAP
Method: In another experiment, a mixture of 2 × 10⁵ NIH/3T3-huFAP clone 19 cells and HeLa cells in FACS buffer were added to each well of a round-bottom 96-well plates (TPP, Cat. No. 92097) and the binding assay was performed. Cells were first stained 20 min with LIVE/DEAD™ Fixable Aqua Dead Cell Stain (Molecular probes, Cat.No. L34957) in DPBS, followed after one washing step with 200 µL 4° C. […] Afterwards the cells were washed once with 200 µL FACS buffer at 4° C. and resuspended by a short vortex. Cells were further stained with 50 µL/well of 4° C. cold secondary antibody solution containing Phycoerythrin (PE)-conjugated AffiniPure anti-human IgG Fcy-fragment-specific goat IgG F(ab′)2 fragment (Jackson ImmunoResearch, Cat. No. 109-116-098) and incubated for 30 minutes at 4° C. in the dark. Samples were finally resuspended in 100 µL/well FACS-buffer and acquired the same day using with BD Fortessa running FACS Diva software.

[3] = target: T1, human OX40 on the cell surface …; test: flow cytometry, activated human PBMC gated on CD4+ T cells
[4] = target: T1, human OX40 on the cell surface …; test: cell-based or functional assay
[5] = target: T1, human OX40 on the cell surface …; test: cell-based or functional assay; remark: listed apart in the source
[6] = target: T3, FcRn (biotinylated, coupled to streptavidin-sepharose); test: FcRn affinity chromatography; retention compared to protein standards with known affinities
T3 construct: also called neonatal Fc receptor
T3 sequence (P55899 24-297, chain 1 of 2): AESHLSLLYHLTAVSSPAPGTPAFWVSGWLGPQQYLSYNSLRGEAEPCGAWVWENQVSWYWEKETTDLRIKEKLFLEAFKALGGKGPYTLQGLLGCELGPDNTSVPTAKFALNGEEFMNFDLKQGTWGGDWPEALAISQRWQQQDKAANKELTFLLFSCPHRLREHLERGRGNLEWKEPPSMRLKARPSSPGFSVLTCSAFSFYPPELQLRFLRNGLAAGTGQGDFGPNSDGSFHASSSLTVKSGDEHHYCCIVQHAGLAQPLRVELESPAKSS
T3 sequence (P61769 21-119, chain 2 of 2, further chain): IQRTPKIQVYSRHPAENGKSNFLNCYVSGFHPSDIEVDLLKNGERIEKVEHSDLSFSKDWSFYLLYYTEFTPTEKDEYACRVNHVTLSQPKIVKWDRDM
Method: For coupling, the prepared receptor was added to streptavidin-sepharose (GE Healthcare). The resulting FcRn-sepharose matrix was packed in a column housing. The column was equilibrated with 20 mM 2-(N-morpholine)-ethanesulfonic acid (MES) and 140 mM NaCl, pH 5.5 (eluent A) at a 0.5 ml/min flow rate. 30 µg of antibody samples were diluted at a volume ratio of 1: 1 with eluent A and applied to the FcRn column. The column was washed with 5 column volumes of eluent A followed by elution with a linear gradient from 20 to 100% 20 mM Tris/HCl and 140 mM NaCl, pH 8.8 (eluent B) in 35 column volumes. The analysis was performed with a column oven at 25° C. The elution profile was monitored by continuous measurement of the absorbance at 280 nm. Retention times were compared to protein standards with known affinities.

[7] = target: T1, human OX40 on the cell surface …; test: cell-based or functional assay; remark: listed apart in the source
[8] = target: T1, human OX40 on the cell surface …; test: cell-based or functional assay; remark: listed apart in the source

Binder | binding result [1] | EC50 [2] | EC50 [3] | EC50 of CD25 upregulation on CD4+ T cells, suboptimal TCR stimulation of human PBMC with NIH/3T3-huFAP cells [4] | EC50 of suppression of FoxP3 induction (FoxP3 MFI) on TGFβ-exposed CD4 T cells, FAP-coated beads [5] | FcRn affinity [6] | EC50 of NFκB activation (luciferase), HeLa_hOx40_NFkB_Luc1, w/ hu FAP [7] | EC50 of NFκB activation (luciferase), HeLa_hOx40_NFkB_Luc1, w/o [7] | EC50 of increased TCB mediated cytokine secretion following FAP-OX40 costimulation of primary human PBMCs [8]
B1 | binds |  |  |  |  |  |  |  | 
B2 | binds |  |  |  |  |  |  |  | 
B3 | binds |  |  |  |  |  |  |  | 
B4 |  | 1710 pM | 1470 pM | 3 pM | 250 pM | -0.1 | 200 pM | 800 pM | 58 pM
B5 |  | 1220 pM | 1640 pM | 1 pM | 110 pM | -0.1 | 200 pM | 1900 pM | 144 pM
